Test results taken from publication PMC3664666 (Science signaling, 2012).

Target: T1, phosphorylated Mt-MviN KHD 681-963 (M. tuberculosis, UniProt P9WJK2 681-963, phosphothreonine at 947)
T1 sequence: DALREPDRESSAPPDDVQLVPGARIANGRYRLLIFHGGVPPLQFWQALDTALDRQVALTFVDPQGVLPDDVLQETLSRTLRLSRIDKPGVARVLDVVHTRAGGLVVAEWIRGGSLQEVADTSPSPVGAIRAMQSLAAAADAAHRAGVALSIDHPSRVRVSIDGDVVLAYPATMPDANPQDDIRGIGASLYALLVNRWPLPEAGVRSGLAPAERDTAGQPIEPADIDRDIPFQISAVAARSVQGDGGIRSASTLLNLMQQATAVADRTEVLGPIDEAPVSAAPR
Test: ITC

B1: FhaA FHA domain Q461A (domain or fragment)
chain: PQGGGYAEPAGRDYDYGQSGAPDYGQPAPGGYSGYGQGGYGSAGTSVTLQLDDGSGRTYQLREGSNIIGRGADAQFRLPDTGVSRRHLEIRWDGQVALLADLNSTNGTTVNNAPVQEWQLADGDVIRLGHSEIIVR
binding result: binds

B2: FhaA FHA domain R474A (domain or fragment)
chain: PQGGGYAEPAGRDYDYGQSGAPDYGQPAPGGYSGYGQGGYGSAGTSVTLQLDDGSGRTYQLREGSNIIGRGQDAQFRLPDTGVSARHLEIRWDGQVALLADLNSTNGTTVNNAPVQEWQLADGDVIRLGHSEIIVR
fold reduction of the binding affinity against the wild type: 41 fold

B3: FhaA FHA domain R459A (domain or fragment)
chain: PQGGGYAEPAGRDYDYGQSGAPDYGQPAPGGYSGYGQGGYGSAGTSVTLQLDDGSGRTYQLREGSNIIGAGQDAQFRLPDTGVSRRHLEIRWDGQVALLADLNSTNGTTVNNAPVQEWQLADGDVIRLGHSEIIVR
fold reduction of the binding affinity against the wild type: > 170 fold
